From a protein production outcome set (Wang et al. 2014) come the findings set out here.
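Note: failed if final PepcDB status was selected cloned or expressed and not failed if soluble or beyond.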

The series is described as follows: label from the status in PepcDB records.
As for “MNSFWLSLAPVLWLTIIAIPVGILFNAAIVFGLYSIILLGIVIYHIHTLYCLEQWLHHSDLSYATVPDRSGLWGVVFARLARFVRRHDKERLGLNTSLERLQRATSALPEGIVILGDKDQIEWCNSAAERHLGLNLEMDAGQHITRMVRQVRFVAYLDMGDFSKPFLLNQSRLRDVLLSIQIVPYGDREKLLISQDVTRFEKIEIMRRDFVANVSHELRTPLTVIGGFLETLLEENKISGEMEKNALRLMSDQAIRMRRLVEDLLTLSRLENAGNNLTEEQVDVVKLLQGLYQEAQSLSAGRHVISLNLASHAMLLGSEDELRSAFENLISNAVRYTPESGIISLNWVVENGKGLFYVQDSGIGIEPNHIPRLTERFYRVDRSRSRETGGTGLGLAIVKHVLNRHQASMEITSQPGAGSIFRIWFPSNRVLPAETAPVISSSPEHTKQNSAA”, the protein production entry is “failed”.

Regarding “MQEVHDYGIKFWSNNEFKIEKGLVKVCHGKNPSLLEIVQSVRDKGYRGPLLVRFPHLVQKQIKSLFDAFSSAIKEYQYSGAFKAVFPLKVNQMPSFVFPLVQGAKGLNYGLEAGSKSELIIAMSYTNPKAPITVNGFKDKEMIELGFIAKSMQHEITLTIEGLNELKTIIAVAKQNEFLACPKIGIRIRLHSTGTGVWAKSGGINSKFGLSSTEVLEAMRLLEENDLLEHFHMIHFHIGSQISDISPLKKALREAGNLYAELRKMGAKNLNSVNIGGGLAVEYTQHKHHQDKNYTLEEFSADVVFLLREIVKNKQEIEPDIFIESGRYISANHAVLVAPVLELFSHEYNEKSLKIKENNNPPLIDEMLDLLANINEKNAIEYLHDSFDHTESLFTLFDLGYIDLIDRSNTEVLAHLIVKKAVQLLYVKDHNDILRIQEQVQERYLLNCSFFQSLPDYWGLRQNFPVMPLNKLDEKPTRSASLWDITCDSDGEIAFDSTKPLFLHDIDIDEEEYFLAFFLVGAYQEVLGMKHNLFTHPTEFSVVFDEKGDYEVEDICEAQTILDVLDDLDYDTKEIERLLKQKIEDNNQLDMEEKKEIMGRLYVMLSENGYLRTIS”, the protein production result is reported as “failed”. The value for “MNIAFTFKNFEPSEHLKKYARRRFEKLARFVGKSANLELQVALSLDKFRQKAEVQLVGDSINIAAVEQSEDMYATIDLVLDKLEAQLKKHVSRVKERRRSARTNANIDVFTYHTEGEGEDRAIVGTDQFVPKPLHVDEAAMQLDALDYEFLVFLNAESERINVIYRRRNGDFGLIDPVV” was “failed”; that for “MTAAPLVSVLLPVYNAGPYLAAALGSILRQDYGRLEVIAIDDGSSDNSLEILERYRQADSRVSIISRENRGLVATLNEGLAAAQGELVARMDADDVAYPWRLSRQVALFEQRPELGFCGAGVDMLIRGRIARGRPDPVFRFGRMPILAMFFTIFMHPTVVYNRKVIEDADLHYDPTYRHAEDFDLFGRLAARYPAAMMPENLLVYRVHQASVTSRHGKEMRRTHLRIVAENLEREGLAEATRDLRDIGEAVSFDTVTRAADFIVALEERIRSLPAETRPSFEAGALNLFYFLYQLVADERQPPLTHELLRRTAKWNAIRRREKYALRPGAWAPWLSLASLAAGKQADAVEYFFKSAPAAAVLASHQVG” was “failed”; that for “MECGVFHTPYMRPGRKDKDTFEYSLLLAAACDKFGYRDFMVGEHGMQAWENIPNPELLIVAAAQITERMRFAPMAHIVPLHNPSTLAIQIGYTSQLLEDRYFLGVGAGSWENEAVLRGQPGDLSEAHPRLMEGLEVMDKVWRQEPFDFEGKYYKAARLDGQIDPGSVASHGEFKVKDGEEYHLTADHSPHGGADGLEIAVTGLSKNSPSHRLAGERGWTPISFYGGSALLRSQWDTYSEAVRSIGGTPQGSRFKIARDVFVAKTDEEAKEKAKNGALGLAWQKYLMPVYQKYRILQGFIDDADHKVDIDDVDLDYLADNVWLCGSPDTVIEKIEKTFDLAGFRYGQLAVNTHDAMDDPEPWIESLRLFATEVVPNVPVEGTHETVAVG” was “failed”.

As for “MASNSRSSISPWTFSQNKMFERALAVYDKDTPDRWHNVAKAVGGKTVEEVKRHYDILVEDLINIETGRVPLPNYKTFESNSRSINDFDTRYITKYLYMMLSIYFDNHSSDFEKFSQKVLVSYISLV”, the protein production entry is “failed”.

Consider “MDRNLVQKGDAPPSKRSDPGTEFCVDIVVKGRKTEVPERFRKHVAEKLKLEKIQKLDGKVISLDVEVSKEPNPRQADRCDRVEITLRSRGPVIRAEAAASDPYAALDLAAEKLGARLRKQHDKRFSRRGARRISAAEVADHVPGAATLNGNGDVVPTEKQDGVPTKKIGSLEVQGDGPLVVREKTHVAAPMSLDQALYEMELVGHDFYLFVDSETKEPSVVYRRHAYDYGVIHLTTDTMVTQAHAPDAGDALGGLEHHHHHH”, for which the protein production entry was “failed”. With “MTIDDMSLVVGMYGNYEVTKTGNLVGILEVSGINLDLLNETEQQDVFEDYGAFLMSTLGEGVDDTLQFLEPTIPVNMTTYLNGLKRRYLALQKDHPEQQFKIQLIASYLDHFTKVQESKNMTTKQHLLIVKVPIKDKSAESLNLAVAHLDEKIEQVKRDIENALTDFDVTAKILTSQEVQEILKNLINFNGLEHHHHHH”, the protein production entry is “not failed”.

Turning to “KTPADNIETADLSASVPTRPAEPERKTLADYGGYPSALDAVKQKNDAAVAAYLENAGDSAMAENVRNEWLKSLGARRQWTLFAQEYAKLEPAGRAQEVECYADSSRNDYTRAAELVKNTGKLPSGCTKLLEQAAASGLLDGNDAWRRVRGLLAGRQTTDARNLAAALGSPFDGGTQGSREYALLNVIGKEARKSPNAAALLSEMESGLSLEQRSFAWGVLGHYQSQNLNVPAALDYYGKVADRRQLTDDQIEWYARAALRARRWDELASVISHMPEKLQKSPTWLYWLARSRAATGNTQEAEKLYKQAAATGRNFYAVLAGEELGRKIDTRNNVPDAGKNSVRRMAEDGAVKRALVLFQNSQSAGDAKMRRQAQAEWRFATRGFDEDKLLTAAQTAFDHGFYDMAVNSAERTDRKLNYTLRYISPFKDTVIRHAQNVNVDPAWVYGLIRQESRFVIGAQSRVGAQGLMQVMPATAREIAGKIGMDAAQLYTADGNIRMGTWYMADTKRRLQNNEVLATAGYNAGPGRARRWQADTPLEGAVYAETIPFSETRDYVKK”, the protein production result was “failed”. As for “MMKMMTRVLSSPSSHVSSLKYSPRRVIRASRDHLRAETLKSHQLPSGSSSTSLCSCGRKHFLEAASPTMPFLPICSPNASRSKDVSETFHPQRPDWYKELFAWFLSTGMRSYEAEVSLCDLNASFYDPFLENDRSFSCFMFVLFGKIAEYKRKLFEKLAGKAETVLEIGVGTGPNLKYFAGNENVCVFGMDPNHKMEKYACESAREAGMKPENFRFMHGVSKLLCFDL”, the entry is “failed”; as for “MTPPERVRRKCPQTNTREPIIQEPDTFEPEATRRDAGATESSRANRGWWDRNADDYQVEHGTFLGDDRFVWCPEGLDEVEAELLGPAEDLKGKDVLEIGAGAAQCSRWLAGQGARPVALDLSHRQLQHALRIGGDVPLVEADAGALPFADASFDLACSAYGALPFVADPVRVLREVHRVLRPGGRFVFSVTHPIRWAFPDEPGPEGLSVSASYFDRTPYVEQDEEGGAVYVEHHRTIGDRVRDVVAGGFRLLDVVEPEWPAWNTQEWGGWSPLRGNLIPGTAIFVCVRD”, “failed”.

“MNLIKTCGLCLLLSVALSGCVTAPTPPESDPQAEQAVLEVSFSEAVKAMKQGNFTEARTVFEQLARNYPDKAGPMANLGIIAFREGDADGAKEWFERARAVNPEHVQALNHLGVIARNAGEFDEAERYYRAALAADPDYAPAILNLAFLLDIYLGNPADAIELYERYQSAASEPHPRLEDWIFDAKNRI”: the protein production entry is listed as “failed”. As for “EQLTLRHGTRADISEIAPLLARNAADPCELVDLEHALDLLTHESSHFLAVVRNARGKIIAAMQLTIVPEFSRGGALHLHIEGPFIIPEYRTTDLDKKLRAWAVEHGRARGVKVEEVVG”, the entry is “failed”.

Consider “MSSEEDYFDELEYDLADEVNEEKEDIQTKKLTTVNCQTEKFNPFEILPESIELFRTLALISPDRLSLSETAQILPKIVDLKRILQQQEIDFIKLLPFFNEIIPLIKSNIKLMHNFLISLYSRRFPELSSLIPSPLQYSKVISILENENYSKNESDELFFHLENKAKLTREQILVLTMSMKTSFKNKEPLDIKTRTQILEANSILENLWKLQEDIGQYIASKISIIAPNVCFLVGPEIAAQLIAHAGGVLEFSRIPSCNIASIGKNKHLSHELHTLESGVRQEGYLFASDMIQKFPVSVHKQMLRMLCAKVSLAARVDAGQKNGDRNTVLAHKWKAELSKKARKLSEAPSISETKALPIPEDQPKKKRAGRKFRKYKEKFRLSHVRQLQNRMEFGKQEQTVLDSYGEEVGLGMSNTSLQQAVGATSGSRRSAGNQAKLTKVMKHRISEANQQADEFLISLGHNTEQPNLSPEMVQMHKKQHTNPEEETNWFSGHG”, for which the protein production result is given as “failed”.

With “MGESYSSGYSLVVRVIANDRSGLLRDITTILANEKVNVLGVASRSDTKQQLATIDMDIEIYNLQVLGRVLAKLNQLPDVIDARRQQGALEHHHHHH”, the protein production entry is recorded as “not failed”. As for “MSLTRTQTYRATIESDIESYLKKAIPIRAPESVFEPMHHLTFAAPRTSASALCVAACELVGGDRSDAMAAAAAVHLMHVAAYTHENLPLTDGPMSKSEIQHKFDPNIELLTGDGIIPFGLELMARSMDPTRNNPDRILRAIIELTRVMGSEGIVEGQYHELGLNQLNDLELIEYVCKKKEGTLHACGAACGAILGGCDEDKIEKLRRFGLYVGTVQGLLGKNRSGFEGRIKELKELAVKELESFGGEKIELIRGVFELEHSLAGVEGHHHHHH”, the entry is “not failed”; as for “MQIRLAFPNEIDQIMLLIEEARAEIAKTGSDQWQKEDGYPNRNDIIDDILNGYAWVGIEDGMLATYAAVIDGHEEVYDAIYEGKWLHDNHRYLTFHRIAISNQFRGRGLAQTFLQGLIEGHKGPDFRCDTHEKNVTMQHILNKLGYQYCGKVPLDGVRLAYQKIKEKGETSIYREIDERNPM”, “not failed”. As for “MKSTLIVIGNIILVILILFIYTMLWYYIGAKGKGIIFGVNLRKKEGLKAVAYWGIFWFLAFSFILSVASRSTISINNKITGILTYLGAISLALFCYLIIIFPITDLIRFILNKLGFSGSLREYMSIIYGRGISIFIAVIIIILFGFWHAIHQTTTNYNISINKKAGKLKQLNVVMVSDVHMGIMIRERGIDKLVTSINKLKPDVVFFCGDMVDESTPTSLEKYYSSAFKEIISKYGVYAITGNHEYATQNSEVAMNYMKKADIKVLEDKAVKVDNSFYVIGRNDAAGGKVKPLNEIMKNADKRLPIIALNHRPVALEEAEKNGVDLQLSGHTHEGQIFPFNFTTKLVFEDDYGYLKKKDFNLIVTSGYGTWGPPIRIGTKGEIVNIKIDFMN”, the entry is “failed”; as for “SCNETGMLERLPLCGKAFADMMGKVDVWKWCNLSEFIVYYESFTNCTEMEANVVGCYWPNPLAQGFITGIHRQFFSNCTVDRVHLEDPPDEVLIPLIVIPVVLTVAMAGLVVWRSKRTDTLL”, “not failed”; as for “MINIVIVSHSKHLAEGIEALANQMLNPTHCRLAIAAGVDDEAHPIGTDAVKIMTAIESLAEADAIIVMMDLGSAILSTETAIELLDTELAQKVTLCSAPLVEGTLAAVVAASSGASLEKVLEEANHALTPKKMQLGENMGGSEPNDVTPSIQMHGKEAHWVVKNPHGLHVRPAATLVELLSKFRADYQLIKGDRRINPLSLNQLSLIQIRQGDEITLIASGEQENEAIDAFLALAKQGFGEALPDELTEQSLTGTLVPASPIKGPAFIWHELELAPIENLSAPLDSTIQIEQFNQAIKDTLNDLKHYAEKANHTLGEQIGAIFNGHIMMLDDEELLTNVIDRIKTDNVSAQQSWTNEMKERIQLYRTLSDPYLRARELDLRDLRNQVLYHLQQKTPPKFTPSQPSILVAKELFPSTLIQFDATQLLAITLAEGDSCSHSAIIATQMGLPMLVHLGDGLLKIKEAQELTLDLKSSELIIGSIN”, “failed”.
